Source: article PMC4640858

Target: QsdR (Quorum sensing degradation Regulation) wild type, transcriptional regulator of the TetR/FabR family (Rhodococcus erythropolis R138)
Experiment: SEC; gel filtration Superdex 200 26/60, buffer A (50 mM Tris-HCl pH 8, 150 mM NaCl); molecular mass estimate 44 kDa

stoichiometry N: 2
Substance: QsdR (Quorum sensing degradation Regulation) wild type, transcriptional regulator of the TetR/FabR family (natural protein)
